Experiment [1] concerns the target gp145 SOSIP construct of the Env spike protein from the HIV-1 BG505 clade A strain, nanodisc-embedded trimer (HIV-1 strain BG505 (clade A)). The experiment in a line: negative-stain EM.
Experiment [2] has the same target. Kind of experiment: cryo-EM structure.

As to “gp145 SOSIP construct of the Env spike protein from the HIV-1 BG505 clade A strain, nanodisc-embedded trimer (complex)”, the stoichiometry N in experiment [1] and in experiment [2] was 3 each time.

By stoichiometry N is commonly meant a count of units in the complex or per binding partner.

(Values after PMC9610346.)
